Data published in US20100297726A1 (AMANO ENZYME, published 2010).

T1: mature transglutaminase (Streptomyces mobaraensis strain No. 140226) (Streptomyces mobaraensis, UniProt P81453 77-407)
T1 construct: Natural enzyme from the culture solution; also called mature TGase; M-TGase
T1 sequence: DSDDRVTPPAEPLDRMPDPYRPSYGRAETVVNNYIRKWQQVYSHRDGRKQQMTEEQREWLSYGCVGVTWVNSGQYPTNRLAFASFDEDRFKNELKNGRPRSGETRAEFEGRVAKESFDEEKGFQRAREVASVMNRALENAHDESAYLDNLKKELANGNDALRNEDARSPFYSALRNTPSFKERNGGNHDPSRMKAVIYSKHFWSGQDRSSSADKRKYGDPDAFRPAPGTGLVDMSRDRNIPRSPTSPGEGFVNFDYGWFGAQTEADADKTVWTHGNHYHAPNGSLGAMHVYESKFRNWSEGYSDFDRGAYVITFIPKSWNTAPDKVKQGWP


Each binder was assayed against T1, mature transglutaminase (Streptomyces …) (assay: gel filtration (Sephacryl S-100), elution patterns with and without SDS).
Description: On the other hand, ammonium sulfate was added to the recovered supernatant until the concentration of saturated solution was achieved, and precipitates were recovered. The recovered precipitates were dissolved in 20 mM phosphate buffer solution (KPB; pH 7.2), and then dialyzed against the same buffer solution. Next, ammonium sulfate was added to the dialysate so that 1.7 M ammonium sulfate was obtained, which was subjected to Phenyl-Sepharose 6 Fast Flow equilibrated with 20 mM phosphate buffer solution (KPB; pH 7.2) containing 1.7 M ammonium sulfate, washed with 1.7 M ammonium sulfate, and eluted with 1.0 M ammonium sulfate. Thus, the target stabilized TGase (P-TGase) was eluted in the eluted fraction. The specific activity of the thus obtained P-TGase (u/Abs 280 nm) was 7.9. The elution patterns of gel filtration (Sephacryl S-100) was compared between the case in which SDS (sodium dodecyl sulfate) was added and the case in which SDS was not added.

Row | binding result | Binder
1 | binds | DNGAGEETKSYAETYRLTADDVANINALNESAPAA (Recovered from P-TGase of Streptomyces mobaraensis strain No. 140226 after SDS treatment and gel filtration; One of three peptide species found in the P-TGase preparation) [pro-sequence peptide of transglutaminase (1) DNGAGEETKSYAETYRLTADDVANINALNESAPAA]
2 | binds | DNGAGEETKSYAETYRLTADDVANINALNESAPAAS (Recovered from P-TGase of Streptomyces mobaraensis strain No. 140226 after SDS treatment and gel filtration) [pro-sequence peptide of transglutaminase (2) DNGAGEETKSYAETYRLTADDVANINALNESAPAAS]
3 | binds | DNGAGEETKSYAETYRLTADDVANINALNESAPAASS (Recovered from P-TGase of Streptomyces mobaraensis strain No. 140226 after SDS treatment and gel filtration) [pro-sequence peptide of transglutaminase (3) DNGAGEETKSYAETYRLTADDVANINALNESAPAASS]
